Earlier results in patent publication US8337823B2, “Modified macromolecule” (priority 2006, dated 2012).

Settings: pH 4 and pH 5

| Substance | stability of the conjugate in acidic conditions |
| --- | --- |
| α-methoxy-ω-(N-(2-methyl-s-octadedcyloxy-[1,3]dioxan-5-yl)-amido}-polyethyleneglycol110 | not stable |
| α-methoxy-ω-N-(2-octadecyloxy-[1,3]dioxolan-4-yl)methylamido}-polyethyleneglycol110 | good stability at both pH 4 and 5 |
| α-methoxy-ω-{N-2-(3-hydroxypropyl-cholesterylcarbamate)-2-methyl-[1,3]dioxan-5-yl-amido}-polyethyleneglycol110 | not stable |
| α-methoxy-ω-{N-(2-cholesteryloxy-[1,3]dioxolan-4-yl)methylamido)-polyethyleneglycol110 | very stable at pH 5 but moderately less stable at pH 4 |
